Here are results for two substances from patent US20220380482A1.

The assay concerns the target human neonatal Fc receptor (FcRn) (human) (UniProt P55899). In words: SPR (Biacore T200), FcRn amine-coupled to CM5 chip, antibody as analyte, steady state fit, pH 6.0. On the technique in general: In SPR one partner is held on a chip, and binding of the other changes the refractive index at the surface.

Sequence of human neonatal Fc receptor (FcRn) (human) (P55899 24-297 limits assumed, chain 1 of 2): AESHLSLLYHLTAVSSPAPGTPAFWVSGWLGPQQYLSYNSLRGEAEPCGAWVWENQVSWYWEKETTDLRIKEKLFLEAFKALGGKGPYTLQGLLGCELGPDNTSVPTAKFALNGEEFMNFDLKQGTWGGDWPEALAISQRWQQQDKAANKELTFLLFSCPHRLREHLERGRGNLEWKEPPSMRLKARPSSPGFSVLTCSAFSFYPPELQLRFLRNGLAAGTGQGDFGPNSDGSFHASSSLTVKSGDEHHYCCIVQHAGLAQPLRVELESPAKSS
Sequence of human neonatal Fc receptor (FcRn) (human) (P61769 21-119 limits assumed, chain 2 of 2, further chain): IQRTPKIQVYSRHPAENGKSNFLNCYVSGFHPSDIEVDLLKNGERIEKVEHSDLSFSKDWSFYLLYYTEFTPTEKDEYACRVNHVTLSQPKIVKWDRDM

As a reminder, the Kd is a measure of binding affinity in units of concentration. With Irrelevant IgG1 (antibody), the Kd is 2370 nM.

As for Irrelevant IgG4 (antibody), the Kd was 3250 nM.
